{
  "source": "paper PMC9367764",
  "about": "“Functional Versatility of the Human 2-Oxoadipate Dehydrogenase in the L-Lysine Degradation Pathway toward Its Non-Cognate Substrate 2-Oxopimelic Acid” (International Journal of Molecular Sciences, 2022)",
  "molecules": {"B1": {"name": "2-oxoadipate dehydrogenase (E1a) (Homo sapiens) (protein)", "chain": "GYQTERGVYGYRPRKPESREPQGALERPPVDHGLARLVTVYCEHGHKAAKINPLFTGQALLENVPEIQALVQTLQGPFHTAGLLNMGKEEASLEEVLVYLNQIYCGQISIETSQLQSQDEKDWFAKRFEELQKETFTTEERKHLSKLMLESQEFDHFLATKFSTVKRYGGEGAESMMGFFHELLKMSAYSGITDVIIGMPHRGRLNLLTGLLQFPPELMFRKMRGLSEFPENFSATGDVLSHLTSSVDLYFGAHHPLHVTMLPNPSHLEAVNPVAVGKTRGRQQSRQDGDYSPDNSAQPGDRVICLQVHGDASFCGQGIVPETFTLSNLPHFRIGGSVHLIVNNQLGYTTPAERGRSSLYCSDIGKLVGCAIIHVNGDSPEEVVRATRLAFEYQRQFRKDVIIDLLCYRQWGHNELDEPFYTNPIMYKIIRARKSIPDTYAEHLIAGGLMTQEEVSEIKSSYYAKLNDHLNNMAHYRPPALNLQAHWQGLAQPEAQITTWSTGVPLDLLRFVGMKSVEVPRELQMHSHLLKTHVQSRMEKMMDGIKLDWATAEALALGSLLAQGFNVRLSGQDVGRGTFSQRHAIVVCQETDDTYIPLNHMDPNQKGFLEVSNSPLSEEAVLGFEYGMSIESPKLLPLWEAQFGDFFNGAQIIFDTFISGGEAKWLLQSGIVILLPHGYDGAGPDHSSCRIERFLQMCDSAEEGVDGDTVNMFVVHPTTPAQYFHLLRRQMVRNFRKPLIVASPKMLLRLPAAVSTLQEMAPGTTFNPVIGDSSVDPKKVKTLVFCSGKHFYSLVKQRESLGAKKHDFAIIRVEELCPFPLDSLQQEMSKYKHVKDHIWSQEEPQNMGPWSFVSPRFEKQLACKLRLVGRPPLPVPAVGIGTVHLHQHEDILAKTFA", "notes": "C-terminally His6-tagged E1a"}, "B2": {"name": "2-oxoadipate dehydrogenase (E1a) (Homo sapiens; P773L) (protein)", "chain": "GYQTERGVYGYRPRKPESREPQGALERPPVDHGLARLVTVYCEHGHKAAKINPLFTGQALLENVPEIQALVQTLQGPFHTAGLLNMGKEEASLEEVLVYLNQIYCGQISIETSQLQSQDEKDWFAKRFEELQKETFTTEERKHLSKLMLESQEFDHFLATKFSTVKRYGGEGAESMMGFFHELLKMSAYSGITDVIIGMPHRGRLNLLTGLLQFPPELMFRKMRGLSEFPENFSATGDVLSHLTSSVDLYFGAHHPLHVTMLPNPSHLEAVNPVAVGKTRGRQQSRQDGDYSPDNSAQPGDRVICLQVHGDASFCGQGIVPETFTLSNLPHFRIGGSVHLIVNNQLGYTTPAERGRSSLYCSDIGKLVGCAIIHVNGDSPEEVVRATRLAFEYQRQFRKDVIIDLLCYRQWGHNELDEPFYTNPIMYKIIRARKSIPDTYAEHLIAGGLMTQEEVSEIKSSYYAKLNDHLNNMAHYRPPALNLQAHWQGLAQPEAQITTWSTGVPLDLLRFVGMKSVEVPRELQMHSHLLKTHVQSRMEKMMDGIKLDWATAEALALGSLLAQGFNVRLSGQDVGRGTFSQRHAIVVCQETDDTYIPLNHMDPNQKGFLEVSNSPLSEEAVLGFEYGMSIESPKLLPLWEAQFGDFFNGAQIIFDTFISGGEAKWLLQSGIVILLPHGYDGAGPDHSSCRIERFLQMCDSAEEGVDGDTVNMFVVHPTTPAQYFHLLRRQMVRNFRKPLIVASPKMLLRLLAAVSTLQEMAPGTTFNPVIGDSSVDPKKVKTLVFCSGKHFYSLVKQRESLGAKKHDFAIIRVEELCPFPLDSLQQEMSKYKHVKDHIWSQEEPQNMGPWSFVSPRFEKQLACKLRLVGRPPLPVPAVGIGTVHLHQHEDILAKTFA"}, "B3": {"name": "2-oxoadipate dehydrogenase (E1a) (Homo sapiens; Q305H) (protein)", "chain": "GYQTERGVYGYRPRKPESREPQGALERPPVDHGLARLVTVYCEHGHKAAKINPLFTGQALLENVPEIQALVQTLQGPFHTAGLLNMGKEEASLEEVLVYLNQIYCGQISIETSQLQSQDEKDWFAKRFEELQKETFTTEERKHLSKLMLESQEFDHFLATKFSTVKRYGGEGAESMMGFFHELLKMSAYSGITDVIIGMPHRGRLNLLTGLLQFPPELMFRKMRGLSEFPENFSATGDVLSHLTSSVDLYFGAHHPLHVTMLPNPSHLEAVNPVAVGKTRGRHQSRQDGDYSPDNSAQPGDRVICLQVHGDASFCGQGIVPETFTLSNLPHFRIGGSVHLIVNNQLGYTTPAERGRSSLYCSDIGKLVGCAIIHVNGDSPEEVVRATRLAFEYQRQFRKDVIIDLLCYRQWGHNELDEPFYTNPIMYKIIRARKSIPDTYAEHLIAGGLMTQEEVSEIKSSYYAKLNDHLNNMAHYRPPALNLQAHWQGLAQPEAQITTWSTGVPLDLLRFVGMKSVEVPRELQMHSHLLKTHVQSRMEKMMDGIKLDWATAEALALGSLLAQGFNVRLSGQDVGRGTFSQRHAIVVCQETDDTYIPLNHMDPNQKGFLEVSNSPLSEEAVLGFEYGMSIESPKLLPLWEAQFGDFFNGAQIIFDTFISGGEAKWLLQSGIVILLPHGYDGAGPDHSSCRIERFLQMCDSAEEGVDGDTVNMFVVHPTTPAQYFHLLRRQMVRNFRKPLIVASPKMLLRLPAAVSTLQEMAPGTTFNPVIGDSSVDPKKVKTLVFCSGKHFYSLVKQRESLGAKKHDFAIIRVEELCPFPLDSLQQEMSKYKHVKDHIWSQEEPQNMGPWSFVSPRFEKQLACKLRLVGRPPLPVPAVGIGTVHLHQHEDILAKTFA", "notes": "C-terminally His6-tagged E1a variant"}, "B4": {"name": "2-oxoadipate dehydrogenase (E1a) (Homo sapiens; R455Q) (protein)", "chain": "GYQTERGVYGYRPRKPESREPQGALERPPVDHGLARLVTVYCEHGHKAAKINPLFTGQALLENVPEIQALVQTLQGPFHTAGLLNMGKEEASLEEVLVYLNQIYCGQISIETSQLQSQDEKDWFAKRFEELQKETFTTEERKHLSKLMLESQEFDHFLATKFSTVKRYGGEGAESMMGFFHELLKMSAYSGITDVIIGMPHRGRLNLLTGLLQFPPELMFRKMRGLSEFPENFSATGDVLSHLTSSVDLYFGAHHPLHVTMLPNPSHLEAVNPVAVGKTRGRQQSRQDGDYSPDNSAQPGDRVICLQVHGDASFCGQGIVPETFTLSNLPHFRIGGSVHLIVNNQLGYTTPAERGRSSLYCSDIGKLVGCAIIHVNGDSPEEVVRATRLAFEYQRQFRKDVIIDLLCYRQWGHNELDEPFYTNPIMYKIIRAQKSIPDTYAEHLIAGGLMTQEEVSEIKSSYYAKLNDHLNNMAHYRPPALNLQAHWQGLAQPEAQITTWSTGVPLDLLRFVGMKSVEVPRELQMHSHLLKTHVQSRMEKMMDGIKLDWATAEALALGSLLAQGFNVRLSGQDVGRGTFSQRHAIVVCQETDDTYIPLNHMDPNQKGFLEVSNSPLSEEAVLGFEYGMSIESPKLLPLWEAQFGDFFNGAQIIFDTFISGGEAKWLLQSGIVILLPHGYDGAGPDHSSCRIERFLQMCDSAEEGVDGDTVNMFVVHPTTPAQYFHLLRRQMVRNFRKPLIVASPKMLLRLPAAVSTLQEMAPGTTFNPVIGDSSVDPKKVKTLVFCSGKHFYSLVKQRESLGAKKHDFAIIRVEELCPFPLDSLQQEMSKYKHVKDHIWSQEEPQNMGPWSFVSPRFEKQLACKLRLVGRPPLPVPAVGIGTVHLHQHEDILAKTFA", "notes": "as for B3"}},
  "key": {"[1]": {"target": "human dihydrolipoamide succinyltransferase (E2o) (human) (UniProt P36957)", "sequence (P36957 68-453)": "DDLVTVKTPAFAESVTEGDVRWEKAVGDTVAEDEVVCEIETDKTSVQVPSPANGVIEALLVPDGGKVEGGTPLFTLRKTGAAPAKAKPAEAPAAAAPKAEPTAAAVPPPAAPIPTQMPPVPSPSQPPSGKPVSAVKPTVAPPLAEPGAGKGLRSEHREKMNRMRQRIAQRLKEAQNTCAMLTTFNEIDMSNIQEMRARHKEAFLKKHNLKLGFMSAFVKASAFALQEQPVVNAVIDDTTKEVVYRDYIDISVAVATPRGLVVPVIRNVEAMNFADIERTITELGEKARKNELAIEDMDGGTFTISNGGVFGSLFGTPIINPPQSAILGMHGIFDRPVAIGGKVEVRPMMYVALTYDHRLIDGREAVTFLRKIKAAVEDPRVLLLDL", "test": "pull-down; co-purification of E1a or Arg715Cys E1a with E2o and E3 (assembly into OADHc) on immobilized metal affinity chromatography; relative amounts from band intensities in PAGE; which component was held by the resin is not stated"}, "[2]": {"target": "human dihydrolipoamide dehydrogenase (E3) (human) (UniProt P09622)", "sequence (P09622 36-509)": "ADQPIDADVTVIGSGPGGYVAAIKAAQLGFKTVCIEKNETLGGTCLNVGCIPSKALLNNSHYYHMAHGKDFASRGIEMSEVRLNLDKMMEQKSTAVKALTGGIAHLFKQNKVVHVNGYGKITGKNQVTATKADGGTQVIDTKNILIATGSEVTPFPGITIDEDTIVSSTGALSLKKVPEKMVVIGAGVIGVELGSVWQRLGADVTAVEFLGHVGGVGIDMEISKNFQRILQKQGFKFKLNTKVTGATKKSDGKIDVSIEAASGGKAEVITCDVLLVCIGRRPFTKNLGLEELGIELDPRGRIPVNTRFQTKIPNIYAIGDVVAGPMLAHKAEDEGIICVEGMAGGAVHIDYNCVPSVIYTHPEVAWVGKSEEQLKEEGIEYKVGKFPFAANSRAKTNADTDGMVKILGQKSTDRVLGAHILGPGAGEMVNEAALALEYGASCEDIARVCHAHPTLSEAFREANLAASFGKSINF", "test": "pull-down; co-purification of E1a or Arg715Cys E1a with E2o and E3 (assembly into OADHc) on immobilized metal affinity chromatography; relative amounts from band intensities in PAGE; which component was held by the resin is not stated"}, "[3]": {"target": "E2o 1-173 di-domain, labelled with N-(1-pyrene) maleimide (human)", "test": "other fluorescence titration; pyrene-labelled E2o 1-173 di-domain titrated by Arg715Cys E1a; 25 °C; 100 mM HEPES (pH 7.5), 0.15 M NaCl, 1% glycerol"}, "[4]": {"target": "E2o di-domain (linker and part of core domain) (Homo sapiens) (UniProt P36957)", "sequence (P36957 68-219)": "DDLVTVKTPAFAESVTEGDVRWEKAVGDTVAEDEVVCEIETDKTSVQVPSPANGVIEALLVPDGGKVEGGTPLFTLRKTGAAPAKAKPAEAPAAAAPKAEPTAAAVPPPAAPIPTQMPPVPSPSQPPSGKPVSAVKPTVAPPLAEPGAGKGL", "test": "fluorescence", "details": "cited from earlier work"}, "[5]": {"substrate": "O=C(O)CCCCC(=O)C(=O)O", "test": "E1a-specific DCPIP reduction assay (Km, kcat)", "format": "biochemical, Homo sapiens", "details": "ThDP, Mg2+ active center; decarboxylated to the E1a-ThDP-enamine intermediate"}, "[6]": {"substrate": "O=C(O)CCCC(=O)C(=O)O", "test": "E1a-specific DCPIP reduction assay (Km, kcat)", "format": "biochemical, Homo sapiens", "details": "ThDP, Mg2+ active center; decarboxylated to the E1a-ThDP-enamine intermediate"}, "[7]": {"substrate": "O=C(O)CCCC(=O)C(=O)O", "test": "E1a-specific DCPIP reduction assay (Km)", "format": "biochemical, Homo sapiens", "details": "ThDP, Mg2+"}},
  "data": [
    {"molecule": "Arg715Cys E1a variant of human 2-oxoadipate dehydrogenase (enzyme)", "values": [
      {"measurement": "relative amount of E1a among the components co-purified as OADHc (band intensity in PAGE)", "setting": "[1]", "result": 7.7, "unit": "%"},
      {"measurement": "relative amount of E1a among the components co-purified as OADHc (band intensity in PAGE)", "setting": "[2]", "result": 7.7, "unit": "%"},
      {"measurement": "Kd", "setting": "[3]", "result": 1130, "unit": "nM"}
    ]},
    {"molecule": "E1a (2-oxoadipate dehydrogenase) (from UniProt Q96HY7)", "values": [
      {"measurement": "Kd", "setting": "[4]", "result": 1120, "unit": "nM"}
    ]},
    {"molecule": "human 2-oxoadipate dehydrogenase (E1a), wild type (enzyme)", "values": [
      {"measurement": "relative amount of E1a among the components co-purified as OADHc (band intensity in PAGE)", "setting": "[1]", "result": 46, "unit": "%"},
      {"measurement": "relative amount of E1a among the components co-purified as OADHc (band intensity in PAGE)", "setting": "[2]", "result": 46, "unit": "%"}
    ]},
    {"molecule": "B1", "values": [
      {"measurement": "Km", "setting": "[5]", "result": 37, "unit": "µM"},
      {"measurement": "Km", "setting": "[6]", "result": 4.9, "unit": "µM"}
    ]},
    {"molecule": "B2", "values": [
      {"measurement": "Km", "setting": "[7]", "result": 6, "unit": "µM"}
    ]},
    {"molecule": "B3", "values": [
      {"measurement": "Km", "setting": "[7]", "result": 5, "unit": "µM"}
    ]},
    {"molecule": "B4", "values": [
      {"measurement": "Km", "setting": "[7]", "result": 3.5, "unit": "µM"}
    ]}
  ]
}
